Laboratory results taken from patent US20050208039A1.

Molecular target: 158P1D7 receptor on HUVEC cells (unidentified)
Assay: flow cytometry on HUVEC cells; bound ECD detected with anti-158P1D7-PE (MAb M15/X68.2.22 at 1 ug/ml and anti-mouse-PE); by the order of the key, 2.88% is taken as the sample 'HUVEC No ECD' and 6.53% as 'HUVEC 158P1D7 ECD' [panel printed as Fig. 34A]

- % gated: 6.53%
Substance: Recombinant extracellular domain (ECD) of 158P1D7 (amino acids 16-608) (from UniProt Q9H5Y7 16-608)
